Where two headings read alike, the source gives them in different places.
Columns and labels:
[1] = biological target: T1, Rat NOGO (A56) plus GST tag (rat); experiment: direct ELISA on GST-NOGO-A56 from rat, Abs490
T1 construct: also called GST-NOGO-A56 from rat

[2] = biological target: T2, GST-human NOGO-A56 (human); experiment: SPR (Biacore T100), human Nogo-A amine-coupled to CM5, antibody 0.125-8 nM flowed over; mean
T2 construct: Expressed in E. coli BL21 from pGEX-6P1 and purified on glutathione-sepharose; the GST tag is part of the protein in the assays; also called GST-Nogo-A 5+6; GST Nogo-A 5 + 6
T2 sequence (chain, as listed by the source limits assumed): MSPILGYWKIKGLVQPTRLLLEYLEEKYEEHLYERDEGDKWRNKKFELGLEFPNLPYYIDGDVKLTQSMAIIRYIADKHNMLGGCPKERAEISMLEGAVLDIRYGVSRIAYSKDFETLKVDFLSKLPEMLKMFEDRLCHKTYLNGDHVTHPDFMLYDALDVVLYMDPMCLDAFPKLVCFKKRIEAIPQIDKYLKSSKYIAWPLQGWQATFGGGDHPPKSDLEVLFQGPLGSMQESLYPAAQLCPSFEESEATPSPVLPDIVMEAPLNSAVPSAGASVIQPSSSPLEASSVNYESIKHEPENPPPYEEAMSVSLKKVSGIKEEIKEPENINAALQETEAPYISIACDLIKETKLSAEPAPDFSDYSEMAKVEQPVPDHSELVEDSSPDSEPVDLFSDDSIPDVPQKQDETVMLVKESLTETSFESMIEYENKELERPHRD

[3] = biological target: T2, GST-human NOGO-A56; experiment: SPR (Biacore), GST-human NOGO-A56 amine-coupled to CM5, antibody flowed over, 25 C
Description: GST-human NOGO-A56 was immobilised to a CM5 chip by primary amine coupling using the Biacore Wizard program designed for targeted immobilisation levels. The CM5 sensor surface was activated by passing a solution of 50 mM N-hydroxy-succinimide (NHS) and 200 mM N-ethyl-N′-dimethylaminopropyl carbonide (EDC). Then GST-human NOGO-A56 in sodium acetate buffer, pH5.0 or pH 4.5, was passed over the chip and immobilised. After immobilisation was complete any still activated esters were blocked by an injection of 1M ethanolamine hydrochloride, pH8.5.
The anti-NOGO mAbs were diluted down in HBS-EP (10 mM HEPES, pH 7.4, 150 mM NaCl, 3 mM EDTA, and 0.005% P-20 surfactant) for the BIAcore 3000 or HBS-EP+ (10 mM HEPES, pH 7.4, 150 mM NaCl, 3 mM EDTA, and 0.05% P-20 surfactant) in the case of the T100 and binding studies were carried out at range of defined antibody concentrations. All runs were referenced against a blanked sensor surface (one that had been activated and blocked as described earlier but had no addition of ligand). Analysis of binding was carried out using the BIAevaluation kinetic analysis software version 4.1 for the BIAcore 3000 and T100 kinetic analysis software version 1.0. […] Unless otherwise stated, the BIAcore experiments were performed at 25° C.

[4] = biological target: T2, GST-human NOGO-A56; experiment: as above; remark: listed apart in the source
[5] = biological target: T2, GST-human NOGO-A56; experiment: reverse format ELISA: antibody captured on anti-human IgG, GST-Nogo-A 5+6 detected with anti-GST-HRP; the x axis is the antibody concentration
[6] = biological target: T1, Rat NOGO (A56) plus GST tag; experiment: SPR (Biacore T100), Nogo-A orthologue amine-coupled to CM5, antibody 0.125-8 nM flowed over; mean
Excerpt: (§1) Approximately 140-180RUs of the various Nogo-A orthologues were captured to the CM5 chip by primary amine coupling. […] The values show the mean and standard deviation (in brackets) of 1-2 independent runs carried out in duplicate with each data set independently analysed prior to calculation of the mean and standard deviation.

[7] = biological target: T3, Squirrel monkey NOGO (A56) plus GST tag (squirrel monkey); experiment: as above
T3 construct: also called GST-NOGO-A56 from squirrel monkey
T3 sequence (chain, as listed by the source limits assumed): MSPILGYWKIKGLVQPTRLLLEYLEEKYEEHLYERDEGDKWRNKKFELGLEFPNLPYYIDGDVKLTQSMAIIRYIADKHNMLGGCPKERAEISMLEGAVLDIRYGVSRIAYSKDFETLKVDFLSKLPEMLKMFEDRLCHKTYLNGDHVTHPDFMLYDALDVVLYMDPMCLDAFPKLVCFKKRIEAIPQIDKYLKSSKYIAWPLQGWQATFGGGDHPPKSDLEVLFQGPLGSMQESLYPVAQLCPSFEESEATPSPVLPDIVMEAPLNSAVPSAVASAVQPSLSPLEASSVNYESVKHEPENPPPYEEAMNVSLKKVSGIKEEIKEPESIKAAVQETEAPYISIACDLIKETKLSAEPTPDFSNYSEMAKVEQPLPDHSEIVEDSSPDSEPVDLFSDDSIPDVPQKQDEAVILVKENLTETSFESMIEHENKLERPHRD
Excerpt: as §1

[8] = biological target: T4, Marmoset NOGO (A56) plus GST tag (marmoset); experiment: as above
T4 construct: also called GST-NOGO-A56 from marmoset
T4 sequence (chain, as listed by the source limits assumed): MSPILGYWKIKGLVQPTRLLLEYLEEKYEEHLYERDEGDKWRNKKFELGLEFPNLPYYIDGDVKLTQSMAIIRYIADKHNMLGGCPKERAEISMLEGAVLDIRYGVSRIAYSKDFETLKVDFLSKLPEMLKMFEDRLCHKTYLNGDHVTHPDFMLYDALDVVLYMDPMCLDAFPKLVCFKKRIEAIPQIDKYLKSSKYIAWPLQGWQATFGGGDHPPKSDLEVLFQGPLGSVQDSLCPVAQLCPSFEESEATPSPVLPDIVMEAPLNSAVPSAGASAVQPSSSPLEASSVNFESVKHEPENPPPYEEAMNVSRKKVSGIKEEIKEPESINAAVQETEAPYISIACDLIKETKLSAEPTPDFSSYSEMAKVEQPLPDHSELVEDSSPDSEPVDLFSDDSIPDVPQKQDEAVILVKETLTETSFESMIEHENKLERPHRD
Excerpt: as §1

[9] = biological target: T5, Cynomolgus monkey NOGO (A56) plus GST tag (cynomolgus monkey); experiment: as above
T5 construct: also called cynomolgus Nogo-A; GST-NOGO-A56 from cynomolgus
T5 sequence (chain, as listed by the source limits assumed): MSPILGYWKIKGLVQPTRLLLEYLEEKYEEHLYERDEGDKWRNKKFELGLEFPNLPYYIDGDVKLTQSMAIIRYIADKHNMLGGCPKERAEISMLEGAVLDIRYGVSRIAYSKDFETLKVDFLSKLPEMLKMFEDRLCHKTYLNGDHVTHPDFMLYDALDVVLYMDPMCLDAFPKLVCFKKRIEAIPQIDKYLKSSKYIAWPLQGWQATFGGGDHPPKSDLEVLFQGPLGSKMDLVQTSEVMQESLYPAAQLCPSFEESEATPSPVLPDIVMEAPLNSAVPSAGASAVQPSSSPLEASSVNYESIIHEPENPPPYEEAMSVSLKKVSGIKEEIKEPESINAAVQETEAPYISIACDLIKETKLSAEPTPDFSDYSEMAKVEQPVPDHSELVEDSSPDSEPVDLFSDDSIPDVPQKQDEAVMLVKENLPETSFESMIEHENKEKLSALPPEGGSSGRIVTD
Excerpt: as §1

[10] = biological target: T1, Rat NOGO (A56) plus GST tag; experiment: SPR (Biacore T100), reverse format: antibody captured by Protein A, GST-NOGO-A56 flowed over; mean
Excerpt: (§2) Protein A was immobilised on the surface at about 4000RUs and anti-Nogo-A antibodies were captured at approximately 300-400RUs. […] All the runs were done in duplicates. The values show the mean and standard deviation (in brackets) of 1-3 independent runs with each run done in duplicate and each data set analysed independently prior to calculation of the mean and standard deviation.

[11] = biological target: T3, Squirrel monkey NOGO (A56) plus GST tag; experiment: as above
Excerpt: as §2

[12] = biological target: T4, Marmoset NOGO (A56) plus GST tag; experiment: as above
Excerpt: as §2

[13] = biological target: T2, GST-human NOGO-A56; experiment: as above
Excerpt: as §2

[14] = biological target: T5, Cynomolgus monkey NOGO (A56) plus GST …; experiment: as above
Excerpt: as §2

[15] = biological target: T2, GST-human NOGO-A56; experiment: SPR (Biacore), GST-human NOGO-A56 amine-coupled to CM5, antibody flowed over, 25 C; remark: listed apart in the source
[16] = biological target: T4, Marmoset NOGO (A56) plus GST tag; experiment: direct ELISA on GST-NOGO-A56 from marmoset, Abs490
[17] = biological target: T2, GST-human NOGO-A56; experiment: direct ELISA, GST-human NOGO-A56 coated at 1.0 mcg/ml, purified antibody, OD490
Description: (§3) Wells were rinsed once with TBS+0.05% Tween (TBST) then incubated with 2% BSA in TBST to block non-specific binding sites at room temperature for 1 hour. Antibodies were diluted in TBST+2% BSA to 10 μg/ml and ½ dilutions made from this. Antibodies were added to wells in duplicate and incubated at room temperature for 1 hour. […] The wells were washed three times with TBST and then incubated with 100 μl OPD peroxidase substrate (Sigma) per well for 10 minutes. The colour reaction was stopped by the addition of 25 μl concentrated H₂SO₄. Optical density at 490 nm was measured using a plate reader. Background values read from wells with no antibody were subtracted.

[18] = biological target: T2, GST-human NOGO-A56; experiment: SPR (Biacore T100), antigen amine-coupled to CM5, antibody 0.125-8 nM; mean of six runs in duplicate (SD in brackets)
Excerpt: In the first approach, the recombinant Nogo-A was coupled to the surface of the chip and anti-Nogo-A antibodies passed over this surface. In the second approach, Protein A was used to capture the antibody onto the surface of the chip over which the recombinant GST-human Nogo-A56 was passed.
The antigen was bound to the CM5 chip by primary amine coupling. […] The values show the mean and standard deviation (in brackets) of six independent runs carried out in duplicate. Each completed data set was analysed independently prior to the calculation of mean and standard deviation.

[19] = biological target: T2, GST-human NOGO-A56; experiment: direct ELISA, GST-human NOGO-A56 coated at 1.0 mcg/ml, purified antibody, OD490; remark: listed apart in the source
Description: as §3

T1 sequence (chain, as listed by the source limits assumed): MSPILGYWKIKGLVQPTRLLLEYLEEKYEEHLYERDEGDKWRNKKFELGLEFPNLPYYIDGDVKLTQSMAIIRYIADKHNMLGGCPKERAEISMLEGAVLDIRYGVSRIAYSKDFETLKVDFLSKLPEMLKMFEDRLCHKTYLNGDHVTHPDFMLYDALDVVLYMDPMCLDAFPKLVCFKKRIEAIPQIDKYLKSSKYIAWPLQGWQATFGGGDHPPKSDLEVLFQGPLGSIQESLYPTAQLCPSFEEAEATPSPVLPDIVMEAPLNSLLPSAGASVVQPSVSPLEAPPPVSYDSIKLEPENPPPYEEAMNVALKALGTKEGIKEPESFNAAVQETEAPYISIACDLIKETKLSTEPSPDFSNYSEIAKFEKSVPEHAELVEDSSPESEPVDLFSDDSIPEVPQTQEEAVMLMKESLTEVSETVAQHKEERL

Binder | EC50 (read off the curve) [1] | Kd [2] | Kd [3] | koff [3] | kon [3] | Kd [4] | koff [4] | kon [4] | EC50 (read off the curve) [5] | Kd [6] | Kd [7] | Kd [8] | Kd [9] | Kd [10] | Kd [11] | Kd [12] | Kd [13] | Kd [14] | Kd [15] | koff [15] | also measured
H28L16 (antibody, human IgG1, kappa, IgG1 (L235A, G237A) / kappa; CAMPATH-1H signal (1-19) left out; also called H28FL L16FL; NOGO H28L16) heavy: not shown light: DIVMTQSPLSNPVTLGQPVSISCRSSKSLLYKDGKTYLNWFLQRPGQSPQLLIYLMSTRASGVPDRFSGGGSGTDFTLKISRVEAEDVGVYYCQQLVEYPLTFGQGTKLEIKRTVAAPSVFIFPPSDEQLKSGTASVVCLLNNFYPREAKVQWKVDNALQSGNSQESVTEQDSKDSTYSLSSTLTLSKADYEKHKVYACEVTHQGLSSPVTKSFNRGEC | ~0.05 µg/mL | 0.64 nM | 0.28 nM | 0.00195 s⁻¹ | 6.89e+06 M⁻¹ s⁻¹ | 0.296 nM | 0.00214 s⁻¹ | 7.25e+06 M⁻¹ s⁻¹ | ~0.06 µg/mL | 0.33 nM | 0.61 nM | 0.626 nM | 0.67 nM | 1.76 nM | 6.86 nM | 4.89 nM | 0.4 nM | 3.41 nM | 0.61 nM | 0.00264 s⁻¹ | kon [2]: 6.97e+06 M⁻¹ s⁻¹; kon [15]: 4.33e+06 M⁻¹ s⁻¹; EC50 (read off the curve) [16]: ~0.04 µg/mL; EC50 (read off the curve) [17]: ~0.06 µg/mL; Kd [18]: 0.64 nM; EC50 (read off the curve) [19]: ~0.08 µg/mL
HcLc (chimera of 2A10: murine 2A10 VH and VL with human IgG constant regions) (antibody, V domains shown, also called chimeric antibody; chimeric form of the parental antibody) VH: QVQLQQPGTELVKPGASVKLSCKASGYTFTSYWMHWVKQRPGQGLEWIGNINPSNGGTNYNEKFKSKATLTVDKSSSTAYMQLSSLTSEDSAVYYCELGQGYWGQGTLVTVSS VL: DIVITQDELSNPVTSGESVSISCRSSKSLLYKDGKTYLNWFLQRPGQSPQLLIYLMSTRASGVSDRFSGSGSGTDFTLEISRVKAEDVGVYYCQQLVEYPLTFGAGTKLELKR | ~0.1 µg/mL | 1.86 nM | 0.74 nM | 0.00233 s⁻¹ | 3.17e+06 M⁻¹ s⁻¹ | 0.779 nM | 0.00249 s⁻¹ | 3.19e+06 M⁻¹ s⁻¹ | ~0.1 µg/mL | 1.12 nM | 1.54 nM | 1.42 nM | 1.68 nM | 2.01 nM | 7.45 nM | 4.51 nM | 0.54 nM | 4.66 nM | 1.18 nM | 0.00313 s⁻¹ | kon [15]: 2.66e+06 M⁻¹ s⁻¹; EC50 (read off the curve) [16]: ~0.09 µg/mL; EC50 (read off the curve) [17]: ~0.06 µg/mL; Kd [18]: 1.86 nM; EC50 (read off the curve) [19]: ~0.09 µg/mL
